Data taken from PMC9853177 (2023).

Target: linear tetra-ubiquitin (M1-linked Ub4) (Homo sapiens, UniProt P0CG47)
Experiment: ITC

B1: HOIL-1 (protein)
chain: MDEKTKKAEEMALSLTRAVAGGDEQVAMKCAIWLAEQRVPLSVQLKPEVSPTQDIRLWVSVEDAQMHTVTIWLTVRPDMTVASLKDMVFLDYGFPPVLQQWVIGQRLARDQETLHSHGVRQNGDSAYLYLLSARNTSLNPQELQRERQLRMLEDLGFKDLTLQPRGPLEPGPPKPGVPQEPGRGQPDAVPEPPPVGWQCPGCTFINKPTRPGCEMCCRARPEAYQVPASYQPDEEERARLAGEEEALRQYQQRKQQQQEGNYLQHVQLDQRSLVLNTEPAECPVCYSVLAPGEAVVLRECLHTFCRECLQGTIRNSQEAEVSCPFIDNTYSCSGKLLEREIKALLTPEDYQRFLDLGISIAENRSAFSYHCKTPDCKGWCFFEDDVNEFTCPVCFHVNCLLCKAIHEQMNCKEYQEDLALRAQNDVAARQTTEMLKVMLQQGEAMRCPQCQIVVQKKDGCDWIRCTVCHTEICWVTKGPRWGPGGPGDTSGGCRCRVNGIPCHPSCQNCH
**Q.** How did the Kd turn out when B1 was run?
**A.** 90 nM
